The record followed here is patent US20160186149A1.

For orientation: Kd means the concentration at which binding is half-saturated.

The target of assay [1] is mannose-6-phosphate (M6P) receptor. The assay is described as follows: M6P receptor plate binding assay: receptor coated at 4 ug/mL, GALNS 0.16-10 nM, bound GALNS read by enzyme activity, single-site binding fit.
Assay [2] shares this target. Kind of assay: M6P receptor affinity column (Affi-Gel 15), 6 ug GALNS loaded, eluted with mannose-6-phosphate gradient, quantified by GALNS ELISA.
Assay [3] shares this target. The assay is described as follows: M6P receptor plate binding assay.

B1: recombinant human N-acetylgalactosamine-6-sulfatase (GALNS), purified, produced from G71S clone 4 co-expressing human SUMF1 (enzyme)
chain: APQPPNILLLLMDDMGWGDLGVYGEPSRETPNLDRMAAEGLLFPNFYSANPLCSPSRAALLTGRLPIRNGFYTTNAHARNAYTPQEIVGGIPDSEQLLPELLKKAGYVSKIVGKWHLGHRPQFHPLKHGFDEWFGSPNCHFGPYDNKARPNIPVYRDWEMVGRYYEEFPINLKTGEANLTQIYLQEALDFIKRQARHHPFFLYWAVDATHAPVYASKPFLGTSQRGRYGDAVREIDDSIGKILELLQDLHVADNTFVFFTSDNGAALISAPEQGGSNGPFLCGKQTTFEGGMREPALAWWPGHVTAGQVSHQLGSIMDLFTTSLALAGLTPPSDRAIDGLNLLPTLLQGRLMDRPIFYYRGDTLMAATLGQHKAHFWTWTNSWENFRQGIDFCPGQNVSGVTTHNLEDHTKLPLIFHLGRDPGERFPLSFASAEYQEALSRITSVVQQHQEALVPAQPQLNVCNWAVMNWAPPGCEKLGKCLTPPESIPKKCLWSH
modifications: Cys at position 53 of the precursor (position 79 of SEQ ID NO:4) converted to Calpha-formylglycine (FGly), about 90%; N-linked glycosylation at Asn178 (bis-phosphorylated mannose 7, BPM7) and Asn397 (oligomannose-type), precursor numbering; 0.58 mol M6P (BPM7)/mol GALNS
In assay [1], B1 yielded a Kd of 2.4 nM. In assay [2], the M6P Receptor Column Binding: % Bound is 56%.

B2: recombinant human N-acetylgalactosamine-6-sulfatase (GALNS), purified, produced from G71S clone C2 co-expressing human SUMF1 (enzyme)
chain: APQPPNILLLLMDDMGWGDLGVYGEPSRETPNLDRMAAEGLLFPNFYSANPLCSPSRAALLTGRLPIRNGFYTTNAHARNAYTPQEIVGGIPDSEQLLPELLKKAGYVSKIVGKWHLGHRPQFHPLKHGFDEWFGSPNCHFGPYDNKARPNIPVYRDWEMVGRYYEEFPINLKTGEANLTQIYLQEALDFIKRQARHHPFFLYWAVDATHAPVYASKPFLGTSQRGRYGDAVREIDDSIGKILELLQDLHVADNTFVFFTSDNGAALISAPEQGGSNGPFLCGKQTTFEGGMREPALAWWPGHVTAGQVSHQLGSIMDLFTTSLALAGLTPPSDRAIDGLNLLPTLLQGRLMDRPIFYYRGDTLMAATLGQHKAHFWTWTNSWENFRQGIDFCPGQNVSGVTTHNLEDHTKLPLIFHLGRDPGERFPLSFASAEYQEALSRITSVVQQHQEALVPAQPQLNVCNWAVMNWAPPGCEKLGKCLTPPESIPKKCLWSH
modifications: Cys at position 53 of the precursor (position 79 of SEQ ID NO:4) converted to Calpha-formylglycine (FGly); N-linked glycosylation at Asn178 (BPM7) and Asn397; 0.69 mol M6P/mol GALNS
As for B2, in assay [3], the Kd turned out to be 5.7 nM. That is a single-digit nanomolar value.
